Results as given in PMC6800368, “Rotational symmetry of the structured Chip/LDB-SSDP core module of the Wnt enhanceosome” (Proceedings of the National Academy of Sciences of the …, 2019).
Where “and” joins values, the source holds several entries; their conditions need not be identical. Equal values may be shown once.

Assays:
[1] = target: Lip-SSDP_(1–92) Mα3 (F66E L69A Y70A) (Drosophila) (UniProt Q9VEB9); experiment: SEC-MALS; MBP-LCCD_(Chip) (WT or Mα6) coexpressed with Lip-SSDP_(1–92) (WT, V65K, Mα3 or ML), purified; Superdex-200 10/300, 2 mg/mL, PBS, 1 mM DTT; PAGE of SEC fractions
[2] = target: the molecule itself; experiment: crystal structure; SSDP_(1–86), tags removed; vapor diffusion at 19 °C; 2.4 Å
[3] = target: T1, MBP-LCCD_(Chip) (Drosophila, UniProt Q7KVG9-2 384-436); experiment: SEC-MALS; MBP-LCCD_(Chip) (WT or Mα6) coexpressed with Lip-SSDP_(1–92) (WT, V65K, Mα3 or ML), purified; Superdex-200 10/300, 2 mg/mL, PBS, 1 mM DTT; PAGE of SEC fractions; conditions: both partners purified
T1 construct: Drosophila Chip, LCCD, residues 384-436; also called Chip-LCCD (residues 384 to 436); source: E. coli BL21(DE3)-RIL, bicistronic coexpression with Lip-SSDP_(1–92), purified (Ni-NTA, gel filtration)
T1 sequence (looked up): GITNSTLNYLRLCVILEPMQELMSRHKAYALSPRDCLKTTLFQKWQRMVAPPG

[4] = target: the molecule itself; experiment: SEC-MALS; Lip-SSDP_(1–92) WT and mutants alone; Superdex-200 10/300, loaded at 2 mg/mL, PBS, 1 mM DTT; self-association of SSDP dimers into tetramers
[5] = target: the molecule itself; experiment: SEC-MALS; MBP-LCCD_(Chip) (WT or Mα6) coexpressed with Lip-SSDP_(1–92) (WT, V65K, Mα3 or ML), purified; Superdex-200 10/300, 2 mg/mL, PBS, 1 mM DTT; PAGE of SEC fractions
[6] = target: the molecule itself; experiment: crystal structure; DD (XLdb1 20-200) bound to a DARPin; 2.0 to 2.59 Å depending on the DARPin

Lip-SSDP_(1–92) Mα3 (F66E L69A Y70A) (from UniProt Q9VEB9 1-92) (domain or fragment)
stoichiometry N [1]: 2

B1: SSDP_(1–86) (domain or fragment, Drosophila, UniProt Q9VEB9 1-86, looked up)
chain: MYGKSKTSAVPSDAQAREKLALYVYEYLLHVGAQKAAQTFLSEIRWEKNITLGEPPGFLHTWWCVFWDLYCAAPERRDQCDHSSEA
notes: also called SSDP-N; N-terminal dimerization domain of SSDP; source: E. coli BL21(DE3)-RIL, purified (Ni-NTA, gel filtration)
binding result [2]: binds

B2: Lip-SSDP_(1–92) (domain or fragment, Drosophila, UniProt Q9VEB9 1-92, looked up)
chain: MYGKSKTSAVPSDAQAREKLALYVYEYLLHVGAQKAAQTFLSEIRWEKNITLGEPPGFLHTWWCVFWDLYCAAPERRDQCDHSSEAKAFHDY
notes: Drosophila SSDP, residues 1-92; Obligate dimer; dimers and tetramers are seen by SEC-MALS; also called SSDP-N; WT Lip-SSDP_(1–92); source: E. coli BL21(DE3)-RIL, purified (Ni-NTA, gel filtration); alone or coexpressed with MBP-LCCD from a bicistronic vector
stoichiometry N [3]: ~2 SSDP chains per LCCD (4:2, from the printed formula) and ~2 SSDP chains per LCCD
stoichiometry N [4]: 2 and 4

B3: Lip-SSDP_(1–92) V65K (domain or fragment, Drosophila, UniProt Q9VEB9 1-92, looked up)
chain: MYGKSKTSAVPSDAQAREKLALYVYEYLLHVGAQKAAQTFLSEIRWEKNITLGEPPGFLHTWWCKFWDLYCAAPERRDQCDHSSEAKAFHDY
notes: Drosophila SSDP, residues 1-92; also called SSDP V65K; source: E. coli BL21(DE3)-RIL, purified (Ni-NTA, gel filtration); alone or coexpressed with MBP-LCCD
stoichiometry N [5]: 4

B4: Lip-SSDP_(1–92) ML (I50E L52E) (domain or fragment, Drosophila, UniProt Q9VEB9 1-92, looked up)
chain: MYGKSKTSAVPSDAQAREKLALYVYEYLLHVGAQKAAQTFLSEIRWEKNETEGEPPGFLHTWWCVFWDLYCAAPERRDQCDHSSEAKAFHDY
notes: Drosophila SSDP, residues 1-92; also called SSDP ML; source: E. coli BL21(DE3)-RIL, purified (Ni-NTA, gel filtration); alone or coexpressed with MBP-LCCD
stoichiometry N [3]: 2 SSDP chains per LCCD
binding result [4]: binds

B5: DD (XLdb1 20-200) (domain or fragment, Xenopus laevis, UniProt P70060 20-200, looked up)
chain: GIGRHTPYGNQTDYRIFELNKRLQNWTEECDNLWWDAFTTEFFEDDAMLTITFCLEDGPKRYTIGRTLIPRYFRSIFEGGATELYYVLKHPKESFHNNFVSLDCDQCTMVTQHGKPMFTQVCVEGRLYLEFMFDDMMRIKTWHFSIRQHRELIPRSILAMHAQDPQMLDQLSKNITRCGLS
notes: Xenopus laevis Ldb1 (XLdb1), dimerization domain, residues 20-200; also called dimerization domain of XLdb1; source: E. coli BL21(DE3)-RIL, purified (Ni-NTA, gel filtration)
binding result [6]: binds
